How the values were obtained:
[1] = target: Allochromatium vinosum DsrC Cys100Ser (Allochromatium vinosum); experiment: SEC
[2] = target: Allochromatium vinosum DsrC, wild type, recombinant with amino-terminal His tag (Allochromatium vinosum); experiment: SEC

stoichiometry N [1]	stoichiometry N [2]	Substance
2	–	Allochromatium vinosum DsrC Cys100Ser (natural protein)
–	2	Allochromatium vinosum DsrC, wild type, recombinant with amino-terminal His tag (natural protein)

Source: paper PMC2637153
